{"source": "patent US6835378B2", "about": "“Method and compositions for inhibiting thrombin-induced coagulation” (The Texas A&M University System University, priority 2001, dated 2004)", "test_system": "contortrixobin digestion of Fg", "test": "Fibrinopeptide B release by contortrixobin, HPLC", "assay_type": "biochemical, human", "conditions": "1:5 ratio of Fg to rSdrG(50-597) (1.5 μM), 60 min", "method": "Superimposed chromatograms show the amount of fibrinopeptide released when the Fg-contortrixobin sample has no SdrG present (upper curve) and when the Fg-contortrixobin sample is incubated with 1.5 μM rSdrG(50-597) (lower curve) at the 60 min time point.\nAnalysis of Fibrinopeptide B Release by HPLC—As in chapter two, we monitored the fibrinopeptide release in the presence of SdrG and the β-fibrinogenase contortrixobin. The HPLC chromatograms shown in FIG. 10 show the expected fibrinopeptide release following digestion of Fg with contortrixobin superimposed with the fibrinopeptide release when Fg and contortrixobin are incubated with rSdrG(50-597). […] This is most likely because FpA is still intact on the Fg molecule, thus contortrixobin is not as effective at cleaving Fg due to steric hindrance from FpA.", "note": "“Also recorded” adds a separate entry of the source.", "data": [{"molecule": "rSdrG(50-597): recombinant His-tagged A region (residues 50-597) of SdrG, a fibrinogen-binding MSCRAMM from S. epidermidis (protein) HHHHHHAEENTVQDVKDSNMDDELSDSNDQSSNEEKNDVINNSQSINTDDDNQIKKEETNSNDAIENRSKDITQSTTNVDENEATFLQKTPQDNTQLKEEVVKEPSSVESSNSSMDTAQQPSHTTINSEASIQTSDNEENSRVSDFANSKIIESNTESNKEENTIEQPNKVREDSITSQPSSYKNIDEKISNQDELLNLPINEYENKVRPLSTTSAQPSSKRVTVNQLAAEQGSNVNHLIKVTDQSITEGYDDSDGIIKAHDAENLIYDVTFEVDDKVKSGDTMTVNIDKNTVPSDLTDSFAIPKIKDNSGEIIATGTYDNTNKQITYTFTDYVDKYENIKAHLKLTSYIDKSKVPNNNTKLDVEYKTALSSVNKTITVEYQKPNENRTANLQSMFTNIDTKNHTVEQTIYINPLRYSAKETNVNISGNGDEGSTIIDDSTIIKVYKVGDNQNLPDSNRIYDYSEYEDVTNDDYAQLGNNNDVNINFGNIDSPYIIKVISKYDPNKDDYTTIQQTVTMQTTINEYTGEFRTASYDNTIAFSTSSGQGQGDLPPE", "values": [{"measurement": "FpB release by contortrixobin", "value": "effectively inhibit FpB release; also recorded: decrease in the amount of FpB released"}, {"measurement": "FpB release by contortrixobin", "setting": "listed as rSdrG (50-597)", "value": "A decrease in the amount of FpB release"}]}]}
